This test deals with T1, sCD146蛋白 (CD146胞外区蛋白, Sino Biological 10115-H08H-20) (human, UniProt P43121 24-559).
T1 construct: extracellular domain; also called 胞外区CD146蛋白
T1 sequence (looked up): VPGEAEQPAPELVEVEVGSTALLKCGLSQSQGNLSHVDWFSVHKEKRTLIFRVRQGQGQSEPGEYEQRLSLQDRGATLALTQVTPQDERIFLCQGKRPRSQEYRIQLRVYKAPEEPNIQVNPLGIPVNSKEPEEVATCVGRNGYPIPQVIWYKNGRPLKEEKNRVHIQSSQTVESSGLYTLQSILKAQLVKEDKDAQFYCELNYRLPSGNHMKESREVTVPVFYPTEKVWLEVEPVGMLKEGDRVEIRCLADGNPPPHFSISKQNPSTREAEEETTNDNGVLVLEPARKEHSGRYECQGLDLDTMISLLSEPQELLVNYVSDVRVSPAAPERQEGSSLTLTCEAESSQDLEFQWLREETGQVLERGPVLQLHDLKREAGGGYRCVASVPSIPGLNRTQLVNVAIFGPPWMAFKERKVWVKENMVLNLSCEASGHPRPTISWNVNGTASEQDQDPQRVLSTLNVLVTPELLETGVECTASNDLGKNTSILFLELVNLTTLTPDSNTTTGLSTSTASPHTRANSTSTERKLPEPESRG
The test is described as follows: BLI (Octet Red96), antibody on Anti-Mouse Fc Capture sensor, sCD146 at 250-3.91 nM. Background: Biolayer interferometry detects binding as a change in optical thickness at a sensor tip.

Experimental findings from patent CN113512118A (INST BIOPHYSICS CAS, dated 2021) are described below.

In general, Kd refers to the constant that tells how readily two partners part at equilibrium. A high value points to a looser complex.

B1: AA98抗体 (mouse monoclonal anti-CD146 antibody AA98) (antibody, mouse IgG2a, kappa, V domains shown)
VH: EVQLLESGAELVRPGASVKLSCKTSGYIFTNYWIHWVKNRSGNGLEWIARIYPGTDITYYNEKFKGKATLTVDKSSSSAYMLLSSLKSEDSSVYFCARSGGYWYFDVWGAGTTVTVSS
VL: ELVMTQSPASLAVSLGQRATISCRASKSVSISGYSYMHWYQQKPGQPPKLLIYLASNLESGVPARFSGSGSGTDFTLNIHPVEEEDAATYYCQHSRELPYTFGGGTKLEIKR
notes: also called 母本AA98抗体; 亲本AA98抗体
Take B1: binding was put at a Kd of 1.12 nM.
